These results are taken from patent publication US20120316071A1 (published 2012).

Experiment [1] has as its target T1, Recombinant Human DLL4 (R&D Systems Cat#1506-D4/CF) (human, UniProt Q9NR61 27-529).
T1 construct: Bought recombinant protein; also called delta-like protein 4; rHuman DLL4
The experiment in a line: ECL Multispot (MSD), antigen spotted; Fab 0.50 (µM); blank 95; first of duplicates.

Experiment [2] deals with T2, rHuman HGF R/c-MET/Fc Chimera, CF (R&D Systems Cat#358-MT/CF) (human, UniProt P08581 25-932).
T2 construct: Bought recombinant protein; also called HGF R/Fc; Fc part of the bought chimera not given
The description is as above.

The target of experiment [3] is T3, rHuman EGF R/Fc Chimera, CF (R&D Systems Cat#344-ER) (human, UniProt P00533 25-645).
T3 construct: Bought recombinant protein; Fc part of the bought chimera not given
The description is as above.

The target in experiment [4] is T4, rHuman ErbB2/Fc Chimera, CF (R&D Systems Cat#1129-ER) (human, UniProt P04626 23-652).
T4 construct: Bought recombinant protein; Fc part of the bought chimera not given
Described as above.

Experiment [5] has as its target T5, rHuman IGF-1 sR, CF (R&D Systems Cat#391-GR) (human, UniProt P08069 31-932).
T5 construct: Bought recombinant soluble receptor; also called insulin-like growth factor-1 soluble receptor
Described as above.

For experiment [6], the target named is T6, rHuman P-Cadherin/Fc Chimera, CF (R&D Systems Cat#861-PC) (human, UniProt P22223 108-654).
T6 construct: Bought recombinant protein; Fc part of the bought chimera not given
Described as above.

Experiment [7] concerns the target T1, Recombinant Human DLL4 (R&D Systems …). The experiment in a line: ECL Multispot (MSD), antigen spotted; Fab 500 (µM); blank 570; first of duplicates.
Experiment [8] has as its target T2, rHuman HGF R/c-MET/Fc Chimera, CF (R&D …). The description is as above.
Experiment [9] concerns the target T3, rHuman EGF R/Fc Chimera, CF (R&D …). The description is as above.
The target in experiment [10] is T4, rHuman ErbB2/Fc Chimera, CF (R&D …). The description is as above.
In experiment [11] the target is T5, rHuman IGF-1 sR, CF (R&D Systems …). The experiment is described as above.
The target in experiment [12] is T6, rHuman P-Cadherin/Fc Chimera, CF (R&D …). Described as above.
The target in experiment [13] is T1, Recombinant Human DLL4 (R&D Systems …). The experiment in a line: ECL Multispot (MSD), antigen spotted; Fab 5 (µM); blank 102; first of duplicates.
The target of experiment [14] is T2, rHuman HGF R/c-MET/Fc Chimera, CF (R&D …). Described as above.
The target in experiment [15] is T3, rHuman EGF R/Fc Chimera, CF (R&D …). Described as above.
In experiment [16] the target is T4, rHuman ErbB2/Fc Chimera, CF (R&D …). Described as above.
Experiment [17] addresses T5, rHuman IGF-1 sR, CF (R&D Systems …). The experiment is described as above.
The target in experiment [18] is T6, rHuman P-Cadherin/Fc Chimera, CF (R&D …). Described as above.
In experiment [19] the target is T1, Recombinant Human DLL4 (R&D Systems …). As to the kind of experiment: ECL Multispot (MSD), antigen spotted; Fab 50 (µM); blank 332; first of duplicates.
Experiment [20] concerns the target T2, rHuman HGF R/c-MET/Fc Chimera, CF (R&D …). The description is as above.
Experiment [21] addresses T3, rHuman EGF R/Fc Chimera, CF (R&D …). The experiment is described as above.
The target of experiment [22] is T4, rHuman ErbB2/Fc Chimera, CF (R&D …). The description is as above.
In experiment [23] the target is T5, rHuman IGF-1 sR, CF (R&D Systems …). The experiment is described as above.
Experiment [24] has as its target T6, rHuman P-Cadherin/Fc Chimera, CF (R&D …). The experiment is described as above.

T2 sequence (P08581 25-932, change not shown): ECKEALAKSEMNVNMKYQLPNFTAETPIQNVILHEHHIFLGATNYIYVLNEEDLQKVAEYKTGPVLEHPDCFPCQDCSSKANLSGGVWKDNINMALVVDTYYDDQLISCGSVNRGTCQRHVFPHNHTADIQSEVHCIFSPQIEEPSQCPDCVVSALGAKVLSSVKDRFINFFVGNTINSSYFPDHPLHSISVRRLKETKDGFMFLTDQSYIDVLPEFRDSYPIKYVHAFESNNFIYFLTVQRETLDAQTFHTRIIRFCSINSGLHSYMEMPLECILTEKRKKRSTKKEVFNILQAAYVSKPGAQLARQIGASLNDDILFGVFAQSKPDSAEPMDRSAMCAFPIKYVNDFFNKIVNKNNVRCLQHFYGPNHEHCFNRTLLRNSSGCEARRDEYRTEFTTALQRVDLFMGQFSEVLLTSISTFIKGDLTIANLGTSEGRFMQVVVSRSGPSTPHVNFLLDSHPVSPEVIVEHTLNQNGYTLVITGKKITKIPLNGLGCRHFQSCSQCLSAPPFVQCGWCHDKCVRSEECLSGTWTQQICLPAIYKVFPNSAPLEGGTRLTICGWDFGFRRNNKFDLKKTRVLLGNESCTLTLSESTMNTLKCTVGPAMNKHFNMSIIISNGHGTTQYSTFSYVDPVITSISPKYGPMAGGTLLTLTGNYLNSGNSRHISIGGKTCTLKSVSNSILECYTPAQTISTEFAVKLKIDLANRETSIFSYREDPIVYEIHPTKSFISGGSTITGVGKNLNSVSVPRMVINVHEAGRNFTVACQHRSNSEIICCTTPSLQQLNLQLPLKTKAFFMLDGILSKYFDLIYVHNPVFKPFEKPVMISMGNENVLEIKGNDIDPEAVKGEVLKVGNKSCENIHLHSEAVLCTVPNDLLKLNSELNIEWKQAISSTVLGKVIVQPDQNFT

B1: Fab VH1-46_IGHD6-6*01_IGHJ1*01 S102A/S103P/S104F/H111F (APFF) & L6_IGKJ1*01 (Fab, V domains shown)
VH: QVQLVQSGAEVKKPGASVKVSCKASGYTFTSYYMHWVRQAPGQGLEWMGIINPSGGSTSYAQKFQGRVTMTRDTSTSTVYMELSSLRSEDTAVYYCAREEYAPFSAEYFQFWGQGTLVTVSS
VL: not shown
notes: Tested as a Fab made in E. coli: VH cloned in Plasmid A (CH1 constant region, His6 and Flag tags), VL in Plasmid C (kappa constant region); also called H:APFF & L:wt
On to B1, for which the ECL signal in experiment [1] was 8320; in [2] it was 104; in experiment [3] it was 137; in [4], 130; in [5], 94; in [6], 106. In addition, the ECL signal worked out at 26900 in experiment [7]; 945 in experiment [8]; 2410 in [9]; 908 in experiment [10]; 722 in [11]; 1010 in [12]. The ECL signal in [13] came out at 76300; in experiment [14], 208; in [15], 229; in experiment [16], 225; in experiment [17], 232; in experiment [18] it was 290. In addition, the ECL signal in experiment [19] is 79400; in experiment [20], 368; in [21], 452; in experiment [22] it was 394; in experiment [23], 283; in [24], 349.
